The source of these data is PMC4881810.

In the assay the target is SNA I lectin from Sambucus nigra (Sambucus nigra). Put plainly: electrochemical impedance spectroscopy.
SNA I lectin from Sambucus nigra (Sambucus nigra), sequence (Q41358 29-289 limits assumed, chain 1 of 2): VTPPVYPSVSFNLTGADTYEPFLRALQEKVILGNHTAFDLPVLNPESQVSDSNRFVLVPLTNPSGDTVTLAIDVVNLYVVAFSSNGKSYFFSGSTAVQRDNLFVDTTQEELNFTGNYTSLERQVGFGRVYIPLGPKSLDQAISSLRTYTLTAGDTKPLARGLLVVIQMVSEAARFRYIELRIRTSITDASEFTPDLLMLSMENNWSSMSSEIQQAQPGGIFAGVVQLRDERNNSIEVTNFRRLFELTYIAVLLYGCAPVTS
SNA I lectin from Sambucus nigra (Sambucus nigra), sequence (Q41358 309-570 limits assumed, chain 2 of 2): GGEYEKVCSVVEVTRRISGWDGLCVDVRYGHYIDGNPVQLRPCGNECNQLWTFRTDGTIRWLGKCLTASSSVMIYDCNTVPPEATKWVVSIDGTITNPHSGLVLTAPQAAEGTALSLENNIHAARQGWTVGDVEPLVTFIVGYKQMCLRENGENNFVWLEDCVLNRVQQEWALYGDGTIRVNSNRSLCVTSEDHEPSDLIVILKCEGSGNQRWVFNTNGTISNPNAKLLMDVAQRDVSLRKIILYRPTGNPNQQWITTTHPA

B1: fetuin (natural protein)
chain: IPLDPVAGYKEPACDDPDTEQAALAAVDYINKHLPRGYKHTLNQIDSVKVWPRRPTGEVYDIEIDTLETTCHVLDPTPLANCSVRQQTQHAVEGDCDIHVLKQDGQFSVLFTKCDSSPDSAEDVRKLCPDCPLLAPLNDSRVVHAVEVALATFNAESNGSYLQLVEISRAQFVPLPVSVSVEFAVAATDCIAKEVVDPTKCNLLAEKQYGFCKGSVIQKALGGEDVRVTCTLFQTQPVIPQPQPDGAEAEAPSAVPDAAGPTPSAAGPPVASVVVGPSVVAVPLPLHRAHYDLRHTFSGVASVESSSGEAFHVGKTPIVGQPSIPGGPVRLCPGRIRYFKI
Regarding B1, the specific sensitivity (OxASF subtracted) is 259 Ω decade^-1.
